Measurements: US8993725B2, “Notch-based fusion proteins and uses thereof” (The Trustees of Columbia University in the City of New York, priority 2004, dated 2015)

Key:
MMP9 mRNA = assay: RT-PCR analysis of MMP9 expression in Ad-VEGF-HUVEC; assay type: cell-based, Human
Protocol: (§1) FIGS. 24A-B show gelatin zymography analysis of MMP-9 and MMP-2 activity stimulated by VEGF in HUVEC. […] Transduced HUVEC were cultured on fibrin gel on the indicated day (i.e. D2, D4, D6, D8). Similar results were also obtained by using collagen gel, although induction of MMP-9 was stronger on fibrin gel than collagen gel (data not shown). […] HUVEC were transduced with Ad-N1ECDFc at the indicated doses and condition medium was collected from HUVEC cultured on collagen gel at day 4. FIGS. 24C-D show up-regulation of MMP-9 and MT1-MMP with Notch signaling. HUVEC were transduced with either Ad-LacZ or Ad-N1IC at 40 MOI. Numbers show PCR cycles. […] HUVEC were transduced with Ad-VEGF in the absence or presence of co-transduction of Ad-N1ECDFc at 40 MOI each. Ad-LacZ was co-transduced to make the same total amount of adenovirus at 80 MOI.
(§2) Requisition of MMPs for angiogenic sprouting has been established by synthetic MMP inhibitors (16). GM6001 is one broad inhibitor against MMPs including MMP2, MMP9 and MT1-MMP (18).

[1] = system: Notch signaling (CBF1 promoter activity) in HUVEC; assay: VEGF-induced Notch signaling, CBF1 promoter / CSL-luciferase reporter activity in HUVEC; assay type: cell-based, Human; settings: for Inhibition of VEGF-induced CBF1 promoter activity: 40 MOI for each adenovirus; for Effect on VEGF-induced CBF1 promoter / CSL luciferase activity: co-infection (co-transduction) with Ad-VEGF in HUVEC
Protocol: To determine VEGF-induced Notch signaling, HUVEC which were infected with adenovirus were used. HUVEC plated 1-day prior in 6 well plates at 8.0×10^5 were infected with either Ad-LacZ as control or Ad-VEGF at indicated m.o.i. in the presence or absence of Ad-N1ECD/Fc. Two days after infection, infected HUVEC were re-seeded into 24-well plate at 1.5×10^5 cell in triplicate and cultured for 24 hours, and then transfected with 12.5 ng pRL-SV40 (Promega) and 137.5 ng pGA981-6 using Effectene transfection reagent (Qiagen). Cells were harvested either 1 or 2 days post-transfection and luciferase activity was determined by using the Dual-Luciferase® Reporter Assay System (Promega).
One can measure Notch signaling function by measuring transcriptional activity of CBF1 promoter, which is activated by binding of Notch-IC to CBF1. We measured CBF1 promoter activity in HUVEC which was infected with adenovirus encoding VECF-165 at different MOI (FIG. 6). Induction of CBF1 promoter was clearly detected in Ad-VEGF-infected HUVEC, compared to Ad-LacZ-infected cells in the MOI dependent manner. […] Thus VEGF induced Notch signaling activity.

[2] = system: VEGF-induced angiogenesis; assay: Mouse Dorsa Air Sac (DAS) assay of in vivo angiogenesis; settings: for VEGF-induced angiogenesis / neo-vascularization in vivo (summary statement): mouse
Description: These Figures show the role of Notch signaling in VEGF-dependent in vivo angiogenesis. […] Representative photographs are shown. FIG. 25A show subcutaneous induced angiogenesis with 293/VEGF transfectant versus 293/VEGF also expressing Notch decoy (Notch-based fusion protein) N1ECDFc. […] MDA-MB-231 breast cancer cells produce VEGF (data not shown).

MMP2 = assay: Gelatin zymography of conditioned medium of transduced HUVEC, MMP-2; assay type: cell-based, Human; settings: co-transduction with Ad-VEGF; collagen gel, day 4
Protocol: as §1, §2

MT1-MMP mRNA = assay: RT-PCR analysis of MT1-MMP expression in Ad-VEGF-HUVEC; assay type: cell-based, Human
Protocol: as §1, §2

MMP9 = assay: Gelatin zymography of conditioned medium of transduced HUVEC, MMP-9; assay type: cell-based, Human; settings: co-transduction with Ad-VEGF; fibrin gel
Protocol: as §1, §2

[3] = Ad-LacZ infected HUVEC, data not shown
[4] = co-transduction with Ad-VEGF, 40 MOI each

B1: N1ECDFc: Notch-based fusion protein or decoy: extracellular domain of Notch1 containing the EGF-repeats fused to the Fc portion of an antibody (protein)
chain: ARGLRCSQPSGTCLNGGRCEVANGTEACVCSGAFVGQRCQDPSPCLSTPCKNAGTCYVVDHGGIVDYACSCPLGFSGPLCLTPLANACLANPCRNGGTCDLLTLTEYKCRCPPGWSGKSCQQADPCASNPCANGGQCLPFESSYICGCPPGFHGPTCRQDVNECSQNPGLCRHGGTCHNEIGSYRCACRATHTGPHCELPYVPCSPSPCQNGGTCRPTGDTTHECACLPGFAGQNCEENVDDCPGNNCKNGGACVDGVNTYNCRCPPEWTGQYCTEDVDECQLMPNACQNAGTCHNSHGGYNCVCVNGWTGEDCSDNIDDCASAACFQGATCHDRVASFYCECPHGRTGLLCHLNDACISNPCNEGSNCDTNPVNGKAICTCPRGYTGPACSQDVDECALGANPCEHAGKCLNTLGSFECQCLQGYTGPRCEIDVNECISNPCQNDATCLDQIGEFQCICMPGYEGVYCEINTDECASSPCLHNGRCVDKINEFLCQCPKGFSGHLCQYDVDECASTPCKNGAKCLDGPNTYTCVCTEGYTGTHCEVDIDECDPDPCHIGLCKDGVATFTCLCQPGYTGHHCETNINECHSQPCRHGGTCQDRDNYYLCLCLKGTTGPNCEINLDDCASNPCDSGTCLDKIDGYECACEPGYTGSMCNVNIDECAGSPCHNGGTCEDGIAGFTCRCPEGYHDPTCLSEVNECNSNPCIHGACRDGLNGYKCDCAPGWSGTNCDINNNECESNPCVNGGTCKDMTSGYVCTCREGFSGPNCQTNINECASNPCLNQGTCIDDVAGYKCNCPLPYTGATCEVVLAPCATSPCKNSGVCKESEDYESFSCVCPTGWQGQTCEIDINECVKSPCRHGASCQNTNGSYRCLCQAGYTGRNCESDIDDCRPNPCHNGGSCTDGVNAAFCDCLPGFQGAFCEEDINECATNPCQNGANCTDCVDSYTCTCPTGFNGIHCENNTPDCTESSCFNGGTCVDGINSFTCLCPPGFTGSYCQYDVNECDSRPCLHGGTCQDSYGTYKCTCPQGYTGLNCQNLVRWCDSAPCKNGGKCWQTNTQYHCECRSGWTGFNCDVLSVSCEVAAQKRGIDVTLLCQHGGLCVDEEDKHYCHCQAGYTGSYCEDEVDECSPNPCQNGATCTDYLGGFSCKCVAGYHGSNCSEEINECLSQPCQNGGTCIDLTNTYKCSCPRGTQGVHCEINVDDCHPPLDPASRSPKCFNNGTCVDQVGGYTCTCPPGFVGERCEGDVNECLSNPCDPRGTQNCVQRVNDFHCECRAGHTGRRCESVINGCRGKPCRNGGVCAVASNTARGFICRCPARFEGATCENDARTCGSLRCLNGGTCISGPRSPTCLCLGSFTGPECQFPASSPCVGSNPCYNQGTCEPTSESPFYRCLCPAKFNGLLCHILDYSFTDLGPG
modifications: left off: a dimerising Fc or GST
notes: Notch-based fusion protein or decoy: extracellular domain of Notch1 containing the EGF-repeats fused to the Fc portion of an antibody
In the case of B1, the “Expression of MMP9, fusion protein adenovirus alone” value (MMP9 mRNA; [3]) is reported as “did not affect expression of either MMP9 or MT1-MMP”, the “VEGF-induced up-regulation of MMP9 mRNA” value (MMP9 mRNA; [4]) is reported as “this induction was inhibited” and the “Inhibition of VEGF-induced CBF1 promoter activity” value ([1]; 24 hr after reporter gene transfection) is reported as 60%. The “Inhibition of VEGF-induced CBF1 promoter activity” value ([1]; 48 hr after reporter gene transfection) was 90%, the “Effect on VEGF-induced CBF1 promoter / CSL luciferase activity” value ([1]; listed as Ad-N1ECDFc) was “clearly decreased CSL luciferase activity induced by VEGF” and the “Effect on VEGF-induced CBF1 promoter / CSL luciferase activity” value ([1]; listed as Ad-Notch fusion protein) was “clearly reduced activation of CBF1 promoter activity”. The “Effect on VEGF-induced CBF1 promoter / CSL luciferase activity” value ([1]; listed as Ad-Notch-based fusion protein) was “clearly reduced activation of CBF1 promoter activity”, the “MOI dependence of the inhibitory activity on VEGF-induced CBF1 promoter activity” value ([1]; co-infection with Ad-VEGF in HUVEC) was “dependent on MOI” and the “Vessel density, index of angiogenesis, MDA-MB-231” value ([2]; Ad-N1ECDFc infected MDA-MB-231 cells) was “is inhibited”. For the same molecule, the “Induction of VEGFR-1 expression in vivo” value ([2]; VEGF-induced skin neovascularization model) was “blocks”, the “Inhibition of MDA-MB-231-induced in vivo angiogenesis” value ([2]; adenovirus mediated expression, compared to adenovirus expressing LacZ) was “clearly inhibited” and the “Vessel density, index of angiogenesis, 293/VEGF” value ([2]; co-expression of 293/N1ECDFc) was “is inhibited”. For the same molecule, the “Inhibition of 293/VEGF-induced in vivo angiogenesis” value ([2]; coexpression in 293/VEGF transfectant, compared to 293/VEGF alone) was “clearly inhibited”, the “VEGF-induced angiogenesis / neo-vascularization in vivo (summary statement)” value [2] was “inhibition of VEGF-induced angiogenesis” and the “VEGF-induced angiogenesis / neo-vascularization in vivo (summary statement)” value ([2]; listed as Notch-based fusion protein) was “blocks VEGF-induced neo-vascularization”. The “VEGF-stimulated activation of MMP2 (gelatin zymography)” value (MMP2) was “inhibition”, the “Expression of MT1-MMP, fusion protein adenovirus alone” value (MT1-MMP mRNA; [3]) was “did not affect expression of either MMP9 or MT1-MMP” and the “VEGF-induced up-regulation of MT1-MMP mRNA” value (MT1-MMP mRNA; [4]) was “this induction was inhibited”. The “VEGF-stimulated induction and activation of MMP9 (gelatin zymography)” value (MMP9) was “inhibition of both induction and activation of MMP9”.
